# Data: the nanobody polyreactivity screen of Harvey et al. (2022)
# Test: yeast display, Sf9 membrane polyspecificity reagent, FACS + sequencing; frameworks hold sequencing errors
# In short: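 Galactose induction of a Saccharomyces cerevisiae BJ5465 synthetic nanobody display library ran 36–48 hours. The cells were then stained for 1 hour at 4 °C with 10% biotinylated, detergent-solubilized Sf9 membrane reagent, pulled down on streptavidin microbeads and FACS-sorted into low and high (top ~1%) gates on expression and reagent-binding fluorescence. Labels for polyreactivity follow the gate of origin.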
row,Sequence,polyreactivity (PSR sort gate)
1,QVQLVESGGGLVQAGGSLRLSCAASGRTFGYYAMGWYRQAPGKERELVAAISSAGSSTYYADSVKGRFTISRDNAKNTVYLQMNSLKPEDTAVYYCAASSRSFIRVYYWGQGTQVTVSS,high polyreactivity
2,QVQLVESGGGLVQAGGSLRLSCAASGRTFGYYAMGWYRQAPGKERELVAAISTSGGGTYYADSVKGRFTISRDNAKYTVYLQMNSLKPVDTAVYYCARDRNTRYKFDYWGQGTQVTLSS,low polyreactivity
3,QVQLVESGGGLVQAGGSLRLSCAASGRTFGYYAMGWYRQAPGKERELVAAISWRGTSTYYADSVKGRFTISRDNAKNTVYLQMNSLKPEDTAVYYCAVGRTVAHRFIAGDYWGQGTQVTVSS,high polyreactivity
4,QVQLVESGGGLVQAGGSLRLSCAASGRTFGYYAMGWYRQAPGKERELVAAISWSGGSTRYADSVKGRFTISRDNAKNTVYFQLNSLKPEDTAVYYCAADSWYSFAGVYRVYGEDYWGQGTQVTVSS,high polyreactivity
5,QVQLVESGGGLVQAGGSLRLSCAASGRTFGYYGMGWYRQAPGKERELVAAITGSGGSTYYADSVKGRFTISRDNAKNTVYLQMNSLKPEDTAVYYCAATYLSRWTLYDYWGQGTQVTVSS,high polyreactivity
6,QVQLVESGGGLVQAGGSLRLSCAASGRTFGYYRMGWYRQAPGKERELVAAITGSGGSTYYADSVKGRFTISRDNAKNTVYLQMNSLKAEDTAVYYCAATYLSRWTLYDYWGQGTQVTVSS,high polyreactivity
7,QVQLVESGGGLVQAGGSLRLSCAASGRTFHDNGMGGYRQAPGKERELVAAISWRGGSTNYADSVKGRFTISRDNAKNTVYLQMNSLKPEETAVYFCNRVPRKFGKLDYWGQGTQVTVSS,low polyreactivity
8,QVQLVESGGGLVQAGGSLRLSCAASGRTFHGYAMGWYRQAPGKERELVARINWSDGRTYYADSVKGRFTISRDNAKNTVFLQMNSLKPEDTAVYYCAADKTVSYAPAWYYYWGQGTQVTVSS,low polyreactivity
9,QVQLVESGGGLVQAGGSLRLSCAASGRTFHGYAMGWYRQAPGNEREFVAAISSDGDSTYYADSVKGRFTISRDNAKNTVYLQMNSLKPEDTAVYYCAAERGYHGGGSGLYDYWGQGTQVTVSS,low polyreactivity
10,QVQLVESGGGLVQAGGSLRLSCAASGRTFHINAMGWYRQAPGKERELVAGINSGGSTNYADSVKGRFTISRDNAKNTVYLQMNSLKPEDTAVYYCNAVVKLKYLYYYVEHYYWGQGTQVTVSS,low polyreactivity
11,QVQLVESGGGLVQAGGSLRLSCAASGRTFHKYAMGWLRQAPGKERELVAAITGSGVRTYYADSVKGRFTISRDNAKNTVYLQMNSLKPEDTAVYYCNADSYNRNGDYWGQGTQVTVSS,high polyreactivity
12,QVQLVESGGGLVQAGGSLRLSCAASGRTFHPYAMGWYRQAPGKERELVAVITTSGSSTYYADSVKGRFTISRDNAKNTVYLQMNSLKPEDTAVYYCAALYWRHQAARYYYWGQGTQVTVSS,high polyreactivity
13,QVQLVESGGGLVQAGGSLRLSCAASGRTFHQYAKGWYRQAPGKERELVAAISRSGGRTYYADSVKGRFTISRDNAKNTVYLQMNSLIPEDSAVYYCNRDIGGTSVLDDYWGQGTQVTVSS,low polyreactivity
14,QVQLVESGGGLVQAGGSLRLSCAASGRTFHRNAMGWYRQAPGKERELVAAITGDGRTNYADSVKGRFTITRDNAKNTVSLQMNSLKPEDTAVYYCFSYDYDYWGQGTQVTVSS,low polyreactivity
15,QVQLVESGGGLVQAGGSLRLSCAASGRTFHRYAMGWYRQAPGKERELVAAITYRGGRTYYADSVKGRFTISRDNANNTVYLQMNSLKPEDTAVYYCNTTQYSPIHDPGDYWGQGTQVTVSS,low polyreactivity
16,QVQLVESGGGLVQAGGSLRLSCAASGRTFHSNAMGWYRQAPGKERELFAAISYSGGSTYYADSVKGRFTISRDNAKNTVYLQMNSLKPEDTAVYYCNAGAVHKKPARDYWGQGTKVTVSS,low polyreactivity
17,QVQLVESGGGLVQAGGSLRLSCAASGRTFHSNAMGWYRQAPGNDRELVASSRRGSRTYYADSVKGRFTISRDNAKNTVSLQLTSLKPEDTAVYYCAAAQVGYYVGSVTYGYWGQATQVTVSS,high polyreactivity
18,QVQLVESGGGLVQAGGSLRLSCAASGRTFHTYAMGWYRQAPGKERELVARITRSGTSTYYADSVKGRFTISRDNAKNTVYLQMNSLKPEDTAVYYCAKPWFLWGYSTSYDWGQGTQVTVSS,high polyreactivity
19,QVQLVESGGGLVQAGGSLRLSCAASGRTFHVYAMGWYRQAPGKERELVATITDGSTNYADSVKGRFTISRDNAKNTVYLQMNRLKPEDNAVYYCATVRDWIPSGDYEYWGQCTQVTVSS,low polyreactivity
20,QVQLVESGGGLVQAGGSLRLSCAASGRTFHWYAMGWYRQAPGKERELVAAIRYSAGSTYYADSVKGRFTISRDNAKNTVYLQMNSLKPEDTAVYYCAAEPYPYGPYYFLWLRYDYWGQGTQVTVSS,low polyreactivity
21,QVQLVESGGGLVQAGGSLRLSCAASGRTFHYNAMGWYRQAPGKERELVAAISFNGGGTYYADSVKGRFTISRDNAKNTVYLQMNSLKPEDTAVYYCNVDAAGSNSHARHDSWGQGTQVTVSS,low polyreactivity

row,Sequence,polyreactivity (PSR sort gate)
1,QVQLVESGGGLVQAGGSLRLSCAASGRTFHYYAMGWYRQAPGKERELVAAISRGGNTYYADSVKGRFTISRDNAKNTVYLQMNSLKPEDTAVYYCAKDNHFEAYRYDYWGQGTQVTVSS,high polyreactivity
2,QVQLVESGGGLVQAGGSLRLSCAASGRTFHYYAMGWYRQAPGKERELVAAITSSGGSTYYADSVKGRFTISRDNANNTVYLQMNSLKPEDTAVYYFNAYSSYIKYDYWGQGTQVTVSS,high polyreactivity
3,QVQLVESGGGLVQAGGSLRLSCAASGRTFIANAMGWYRQAPGKERELVAVITLNGGSTYYADSVKGRFTISRDNAKSTVYLQMISLKPEDTAVYYCAAGRYYNLRATHGYWGQGTQVTVSS,low polyreactivity
4,QVQLVESGGGLVQAGGSLRLSCAASGRTFIAYGMGWYRQAPGKERELVAAISRNGASTYYADSVKGRFTISRDNAKNTVYLQMNSLKPEDNAVYYCAAGYIRSRGGRWTHSGYWGQGTQVTVSS,high polyreactivity
5,QVQLVESGGGLVQAGGSLRLSCAASGRTFIGYAMGWYRQAPGKERELVATISVSGGSTYYADSVKGRFTISRDNAKNTVYLQMNSLTPVDTAVYYCADDPRYLQSWRGEFAGESWGQGTQVTVAS,low polyreactivity
6,QVQLVESGGGLVQAGGSLRLSCAASGRTFIGYNMGWYRQAPGKERELVAAITWNGGRTYYADSVKGRFTISRDNAKNTVYLQMNSLKPEDTAVYYCAAPRRVVIGGGDYWGQGTQVTVSS,high polyreactivity
7,QVQLVESGGGLVQAGGSLRLSCAASGRTFIINGMGWYRQAPGKERELVAAITTSGGSTYYADSVKGRFTISRDNAKNTVYLQMNSLKPEDTAVYSCAADVFSRKYLYGDYDYWGQGTQVTVSS,high polyreactivity
8,QVQLVESGGGLVQAGGSLRLSCAASGRTFIQYAMGWYRQAPGKERELVAAISLSGGSTYYADSVKGRFTISRDNAKNTVYLQMNSLKPEDTAVYYCNAGYYWGQGTQVTVSS,high polyreactivity
9,QVQLVESGGGLVQAGGSLRLSCAASGRTFIRNAMGWYRQAPGKERELVAAITRSGGSTYYADSVKGRFTISRDNAKNTVYFQMNSLKPEDTAVYYCAAQPFYYLVGVPDDYWGQGTHVTVSS,low polyreactivity
10,QVQLVESGGGLVQAGGSLRLSCAASGRTFIWYAMGWYRQAPGKERELVAAISYSGASTYYADSVKGRFTNSRDNAKNTVYLQMNSLKPEDTAVYYCYPLGTYSYDYWGQGTQVTVSS,high polyreactivity
11,QVQLVESGGGLVQAGGSLRLSCAASGRTFIYYAMGWYRQAPGKEREFVAIISWNGTSTNYADSVKGRFTISRDKAKNTVYLQMNSLKPEDTAVYYCAASFWSDYYRYDYWGQGTQVTVSS,low polyreactivity
12,QVQLVESGGGLVQAGGSLRLSCAASGRTFKDYAMGWYRQAPGKERELVAAISWSGGDTYYADSVKGRFTISRDNAKNTVYLQMNRLKPEDTAVYYCNADPSGVFFYSLEFDYWGQGTQVTVSS,low polyreactivity
13,QVQLVESGGGLVQAGGSLRLSCAASGRTFKGYVMGWYRQAPGKERELVAAITYGGGSTYYADSVKGRFTISRDNAKNTVYLQMNSLKPEDTAVYYCAADSIYGTKYDYWGQGTQVTVSS,high polyreactivity
14,QVQLVESGGGLVQAGGSLRLSCAASGRTFKHNAMGWYRQAPGKERELVAAINQSGSSTYYADSVKGRFTISRDNAKNTVYLQMNSLKPEDTAVYYCAAGVFFFTFDYWGQGTQVTVSS,low polyreactivity
15,QVQLVESGGGLVQAGGSLRLSCAASGRTFKHYAMGWYRQAPGKERELVAGISRGGGITYYADSVKGRFTISRDNAKNTVYLQMNSLKPDDTAVYYCNAYDLYKSGGDYWGQGTQVTVSS,high polyreactivity
16,QVQLVESGGGLVQAGGSLRLSCAASGRTFKKYAMGWYRQAPGKEREMVAAITGSGGSTYYADSVKRRFTISRDNAKNTVYLQMNSLKPEDTAVYYCAAYAYGVWHSQDGGNYWGQGTQVTVSS,low polyreactivity
17,QVQLVESGGGLVQAGGSLRLSCAASGRTFKLNAMGWYRQAPGKERELVAAISRNGGSTYYADSVKGRFTISRDNAKNTVYLQMTSLKPEDTAVYYCAAVRHGVSLAGYYWGQGTQVTVSS,high polyreactivity
18,QVQLVESGGGLVQAGGSLRLSCAASGRTFKLYAMGWYRQAPGKERELVAAITESGGSTYYAVSVKGRFTISRDNAKNTVYLQMNSLKPEDTAVYYCAAYASAGTRGGYDYWGQGTQVTVSS,low polyreactivity
19,QVQLVESGGGLVQAGGSLRLSCAASGRTFKRNAMGWYRQAPGKERELVAAISSDGRTNYADSVKGRFTISRDNAKNTVYLQMNSLKPEDTAVYYCAASYVLSYGTYYYWGQGTQVTVSS,low polyreactivity
20,QVQLVESGGGLVQAGGSLRLSCAASGRTFKRNAMGWYRQAPGKERELVAGISGSGTTTYYADSVKGRFTISRDNAKNTVYLQMNSLKPEDTAVYYCAARALSHGARYDYWGQGTQVTVSS,high polyreactivity
